According to patent US20260234247A1 (published 2026):

B1: LK-RB2-36 (antibody, human IgG4 S228P, kappa, V domains shown)
VH: QVQLQQSGAELVRPGASVKMSCKASGYTFTNYWIGWAKQRPGHGLEWIGDIYPGGTYTGYNEKFKGKATLTADKSSSTAYMQFSSLTSEDSAIYYCARRMDYDGYAMDYWGQGTSVTVSS
VL: DIVLTQSPASLSVTPGDSVSLSCRASQSISNNLHWYQQKSHESPRLLIKYASQSISGIPSRFSGSGSGTDFTLSINSVETEDFGMYFCQQSNSWPLTFGAGTKLELKR
B2: LK-RB2-37 (antibody, human IgG4 S228P, kappa, V domains shown)
VH: QIQLVQSGPEVKKPGETVKISCKASGYTFTTYGMSWVKQAPGKGLKWMGWINTYSGVPTYADDFKGRFAFSLETSVSTAYLQINNLKNEDTSTYFCARRRDYDGYAMDYWGQGTSVTVSS
VL: DIVMSQSPSSLAVSVGEKVTMSCKSSQSLLYSGNQKNYLAWYQQKPGQSPKLLIYWASARESGVPDRFTGSGSGTDFTLTISSVKAEDLAVYYCQQYYTYPFTFGSGTKLEIKR
B3: LK-RB2-6 (antibody, human IgG4 S228P, kappa, V domains shown)
VH: QIQLVQSGPELKKPGETVKISCKASGYTFTTYGMSWVKQAPGKGLEWMGWINIYSGVPTYADDFKGRFAFSLETSASTAYLQINNLKNEDTATYFCARRGDYDSFYFDYWGQGTTLTVSS
VL: DIVMSQSPSSLAVSVGEKVTVSCKSSQSLLYSYNQKNYLAWYQQKPGQSPKLLIYWSSTRESGVPDRFTGSGSGTDFTLTISSVKAEDLAVYYCQQCYNYPYTFGGGTKLEIKR
B4: LK-RB2-1 (antibody, human IgG4 S228P, kappa, V domains shown)
VH: QIQLVQSGPELKKPGETVKISCKASGYTFTTYGMSWVKQAPGKGLKWMGWINTYSGVSTYADDFKGRFAFSLETSASTAYLQINNLKNEDTATYFCARRYDYDGYAMDYWGQGTSVTVSS
VL: DIVMSQSPSSLAVSVGEKVTMSCKSSQSLLFSSNQKNYLAWYQQKPGQSPKLLIYWASTRESGVPDRFTGRGSGTDFTLTISSVKTEDLAVYYCQQYDTYPPTFGGGTKLEIKR
B5: LK-RB2-3 (antibody, human IgG4 S228P, kappa, V domains shown)
VH: QLQLQQSDAELVKPGASVKISCKVSGYSFTDHTIHWMKQRPEQGLEWIGYIYPRDGSTKENEKFTGKATLTADKSSSTAYMQLTSLTSEDSAVYFCTGSGFDYWGQGTSLTVSS
VL: DIKMTQSPSSMYASLGERVTITCKASQDIKSYLSWFQQKPGKSPKTLIYRANRLVDGVPSRFSGSGSGQDYSLTINSLEYEDMEIYYCLQYDEFPYTFGGGTKLEIKR
B6: LK-RB1-16 (antibody, human IgG4 S228P, kappa, V domains shown)
VH: QVQLKESGPGLVAPSQSLSITCTVSGFSLISNAISWVRQPPGKGLEWLGVIWGDGNTIYHSALRSRLTISKDNSKSQVFLKLNSLQIDDTATYYCAKANWDGYYFDYWGQGTTLTVSS
VL: DIQMNQSPSSLSASLGDTITITCHASQSVDFWLNWYQQKPGNIPKLLISKASNLHTGVPSRFSGSGSGTTFTLTISSLQPEDIATYYCQQGQSYPLTFGSGTKLEIKR
notes: Anti-LILRB1 antibody from mouse hybridoma; parental antibody of LK-RB1-16.h1 to h3
B7: J19.h1 (antibody, human IgG4 S228P, kappa, V domains shown)
VH: QITLKESGPTLVKPTQTLTLTCTFSGFSLNTYAMGVSWIRQPPGKALEWLASIWWNGNKYNNPSLKSRLTVTKDTSKNQVVLTMTNMDPVDTATYYCAHSRIIRFTDYVMDAWGQGTLVTVSS
VL: DIQMTQSPSSLSTSVGDRVTITCRASEDIYNDLAWYQQKPGKAPKLLIYNANSLHTGVASRFSGSGSGTDFTFTISSLQPEDVATYFCQQYYDYPLTFGQGTKLEIKR
B8: LK-RB2-35 (antibody, human IgG4 S228P, kappa, V domains shown)
VH: EVQLQQSGPELVKPGASVKISCKASGYTFTDYNMHWVKQSHGKSLEWIGSIYPYNGGSDYNQKFKSKATLTVDNSSSTAYMELRSLTSEDSAVYYCASELTGLYAMDYWGQGTSVTVSS
VL: DIVMTQSPATLSVTPGDRVSLSCRASQSISDYLHWYQQKSHESPRLLIKYASQSISGIPSRFSGSGSGSDFTLSINSVEPEDVGVYYCQTGHSFPYTFGGGTKLEIKR
B9: LK-RB2-45 (antibody, human IgG4 S228P, kappa, V domains shown)
VH: QIQLVQSGPELKKPGETVKISCKASGYTFTTYGMSWVKQTPGKGLQWMGWINVYSGVPTYADDFKGRFAFSLEASASTAYLQINNLKNEDTASYFCARRGDYDGHYFDYWGQGTTLTVSS
VL: DIVMTQSPATLSVTPGDRVSLSCRASQSISDYLNWYQQKSHESPRLLIKYVSQSISGIPSRFSGSGSGSDFTLSINSVEPEDIGVYYCQNGHNFPLTFGGGTKLELKR
B10: LK-RB2-41 (antibody, human IgG4 S228P, kappa, V domains shown)
VH: EVQLQLSGPELVKPGASVKMSCKASGYTFTDYNMHWVKQSHGKSLEWIGYINPNNGGTTYNQKFKGKATLTVNKSSSTAYMELRSLTSEDSAVYYCARAPYYGSSYLLAYWGQGTLVTVSA
VL: DIVMTQSHKFMSTSVGDRVSITCKASQDVSTAVAWYQQKPGQSPKLLIYSASYRYTGVPDRFTGSGSGTDFTFTISSVQAEDLAIYYCQQHYSIPWTFGGGTKLEIKR
B11: LK-RB2-40 (antibody, human IgG4 S228P, kappa, V domains shown)
VH: DVQLQESGPGLVKPSQSLSLTCSVTGYSITSGYYWNWIRQFPGNKLEWMAYISYDGSNNYNPSLKNRISITRDTSKNQFFLKLNSVTTEDTATYYCAREEGTAQATLGYFDYWGQGTTLTVSS
VL: DIQMTQSPASLSVSVGETVTITCRASENIYSNLAWYQQKQGKSPQLLVYAATNLADGVPSRFSGSGSGTQYSLKINSLQSEDFGSYYCQHFWDTPFTFGSGTKLEIKR
B12: LK-RB2-7 (antibody, human IgG4 S228P, kappa, V domains shown)
VH: DVKLVESGEGLVKPGGSLKLSCAASGFTFSSYAMSWVRQTPEMRLEWVAYISSGGDHFYYADTVKGRFTISRDNARSTLYLQMSSLKSEDTAMYYCTREGASYDSNFLAWFAYWGQGTLVTVSA
VL: DIQMTQSPASLSVSVGETVTITCRASENIYSNLAWYQQKEGKSPQLLVYGATNLADGVPSRFSGSGSGTQYSLKINSLQSEDFGSYYCQNFWDIPLTFGAGTKLELKR
B13: LK-RB2-9 (antibody, human IgG4 S228P, kappa, V domains shown)
VH: DVQLQESGPGLVKPSQSLSLTCSVTGYSITSGYYWNWIRQFPGNKLEWMGYIGYDGNNNYNPSLKNRISITRDTSKNQFFLKLNSLTTEDTATYYCAREGSTMVTSWFAYWGQGTLVTVSA
VL: DIQMTQSPASLSVSVGETVTITCRASENIYSNLAWYQQKQGKSPQLLVYGATNLADGVPSRFSGRGSDTQYSLKINSLQSEDFGSYYCQHFWDTPYTFGGGTKLEIKR
B14: LK-RB2-2 (antibody, human IgG4 S228P, kappa, V domains shown)
VH: DVKLEESGEGLVKPGGSLKLSCAASGFTFSSYAMSWVRQTPEKRLEWVAYISSGGDYFHYADTVKGRFTISRDNARNTLYLQMSSLKSEDTAMYYCTREGAHYDSSYLAWFAHWGQGTLVTVSA
VL: DIQMTQSPASLSVSVGETVTITCRASENIYSNLAWYQQRQGKSPQLLVYAATNLADGVPSRFSGSGSGTQYSLKINSLQSEDFGSYYCQQFWDNPLTFGAGTKLELKR
B15: LK-RB2-4 (antibody, human IgG4 S228P, kappa, V domains shown)
VH: EVQLVESGGDLVKPGGSLKLSCAASGFTFSNYGMSWVRQTPDKRLEWVATISSGGSYTFYPDSVKGRFTISRDNAKNTLYLQMSSLKSEDTALYYCARDYYYGKTIEGYFDYWGQGTTLTVSS
VL: DIQMTQTTSSLSASLGDRVTISCRANQDISNYLNWYQQKPDGTVKLLIYYTSRLHSGVPSRFSGSGSGTDYSLTISDLEQEDIATYFCQQGNTLPWTFGGGTKLEIKR
B16: LK-RB1-16.h2 (antibody, human IgG4, kappa, V domains shown)
VH: QVQLQESGPGLVKPSETLSLTCTVSGFSLISNAISWIRQPPGKGLEWLGVIWGDGNTIYHSALRSRLTISKDTSKNQVFLKLSSVTAADTAVYYCAKANWDGYYFDYWGQGTTVTVSS
VL: DIQMTQSPSTLSASVGDRVTITCHASQSVDFWLNWYQQKPGKAPKLLIYKASNLHTGVPSRFSGSGSGTEFTLTISSLQPDDFATYYCQQGQSYPLTFGQGTKLEIKR
notes: Humanized form of LK-RB1-16
B17: LK-RB1-16.h1 (antibody, human IgG4, kappa, V domains shown)
VH: QVQLQESGPGLVKPSETLSLTCTVSGFSLISNAISWIRQPPGKGLEWLGVIWGDGNTIYHSALRSRVTISKDTSKNQFSLKLSSVTAADTAVYYCAKANWDGYYFDYWGQGTTVTVSS
VL: DIQMTQSPSTLSASVGDRVTITCHASQSVDFWLNWYQQKPGKAPKLLIYKASNLHTGVPSRFSGSGSGTEFTLTISSLQPDDFATYYCQQGQSYPLTFGQGTKLEIKR
notes: Humanized form of LK-RB1-16
B18: LK-RB1-16.h3 (antibody, human IgG4, kappa, V domains shown)
VH: QVQLQESGPGLVKPSETLSLTCTVSGFSLISNAISWIRQPPGKGLEWLGVIWGDGNTIYHSALRSRLTISKDTSKNQVFLKLSSVTAADTAVYYCAKANWDGYYFDYWGQGTTVTVSS
VL: DIQMTQSPSTLSASVGDRVTITCHASQSVDFWLNWYQQKPGKAPKLLISKASNLHTGVPSRFSGSGSGTEFTLTISSLQPDDFATYYCQQGQSYPLTFGQGTKLEIKR
notes: Humanized form of LK-RB1-16

How the values were obtained:
[1] = target: T1, human LILRB1 expressed on CHOK1 cells (CHOK1-hLILRB1) (human, UniProt Q8NHL6 24-650); assay: FACS binding to CHOK1-hLILRB1 cells
T1 construct: whole, on cells; also called CHOK1-LILRB1
T1 sequence (Q8NHL6 24-650): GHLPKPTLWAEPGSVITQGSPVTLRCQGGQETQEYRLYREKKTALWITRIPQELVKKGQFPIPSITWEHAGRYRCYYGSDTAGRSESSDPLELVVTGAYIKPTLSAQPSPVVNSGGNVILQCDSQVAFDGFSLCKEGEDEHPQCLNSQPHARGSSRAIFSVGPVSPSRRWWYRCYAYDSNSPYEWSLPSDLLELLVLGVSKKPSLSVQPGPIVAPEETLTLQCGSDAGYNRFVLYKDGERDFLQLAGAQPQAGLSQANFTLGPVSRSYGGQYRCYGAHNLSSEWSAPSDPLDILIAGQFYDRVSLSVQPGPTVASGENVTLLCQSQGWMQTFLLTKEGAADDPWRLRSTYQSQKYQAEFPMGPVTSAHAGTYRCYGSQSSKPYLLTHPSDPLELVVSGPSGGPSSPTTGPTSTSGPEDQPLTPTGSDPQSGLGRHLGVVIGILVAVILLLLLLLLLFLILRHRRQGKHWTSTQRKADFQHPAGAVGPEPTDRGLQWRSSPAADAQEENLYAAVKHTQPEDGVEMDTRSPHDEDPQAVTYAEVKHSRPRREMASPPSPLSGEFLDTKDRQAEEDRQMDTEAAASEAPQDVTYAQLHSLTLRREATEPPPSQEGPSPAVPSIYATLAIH

[2] = target: T2, human LILRB2 expressed on CHOK1 cells (CHOK1-hLILRB2) (human, UniProt Q8N423 22-597); assay: FACS binding to CHOK1-hLILRB2 cells
T2 construct: whole, on cells; also called CHOK1-LILRB2
T2 sequence (Q8N423 22-597): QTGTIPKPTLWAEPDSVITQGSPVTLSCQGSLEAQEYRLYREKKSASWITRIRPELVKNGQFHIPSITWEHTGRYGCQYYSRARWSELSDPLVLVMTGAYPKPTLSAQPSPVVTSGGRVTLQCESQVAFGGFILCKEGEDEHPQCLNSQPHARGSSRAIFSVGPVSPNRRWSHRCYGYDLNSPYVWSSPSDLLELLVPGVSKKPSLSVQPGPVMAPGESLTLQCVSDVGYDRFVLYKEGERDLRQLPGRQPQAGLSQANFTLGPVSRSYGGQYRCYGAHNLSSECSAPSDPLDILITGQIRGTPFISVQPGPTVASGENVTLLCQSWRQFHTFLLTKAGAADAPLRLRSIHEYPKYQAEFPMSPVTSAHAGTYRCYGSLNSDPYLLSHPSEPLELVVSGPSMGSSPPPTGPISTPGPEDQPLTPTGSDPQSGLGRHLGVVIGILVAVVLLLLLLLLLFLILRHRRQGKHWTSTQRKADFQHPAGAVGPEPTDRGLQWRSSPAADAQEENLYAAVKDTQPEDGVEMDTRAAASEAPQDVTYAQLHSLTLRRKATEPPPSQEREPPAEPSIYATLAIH

[3] = target: T2, human LILRB2 expressed on CHOK1 cells …; assay: cell based RBA, flow cytometry: blocking of HLA-G binding to CHOK1-hLILRB2 cells
[4] = target: T3, human LILRB2 (human, UniProt Q8N423 22-460, limits assumed); assay: Octet off-rate ranking;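 also: antibody dissociation rate constants against cynomolgus LILRB2 plus human LILRB1, LILRB2, LILRA1 and LILRA2, measured on an Octet instrument to rank binding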
T3 construct: also called hLILRB2
T3 sequence (Q8N423 22-460 limits assumed): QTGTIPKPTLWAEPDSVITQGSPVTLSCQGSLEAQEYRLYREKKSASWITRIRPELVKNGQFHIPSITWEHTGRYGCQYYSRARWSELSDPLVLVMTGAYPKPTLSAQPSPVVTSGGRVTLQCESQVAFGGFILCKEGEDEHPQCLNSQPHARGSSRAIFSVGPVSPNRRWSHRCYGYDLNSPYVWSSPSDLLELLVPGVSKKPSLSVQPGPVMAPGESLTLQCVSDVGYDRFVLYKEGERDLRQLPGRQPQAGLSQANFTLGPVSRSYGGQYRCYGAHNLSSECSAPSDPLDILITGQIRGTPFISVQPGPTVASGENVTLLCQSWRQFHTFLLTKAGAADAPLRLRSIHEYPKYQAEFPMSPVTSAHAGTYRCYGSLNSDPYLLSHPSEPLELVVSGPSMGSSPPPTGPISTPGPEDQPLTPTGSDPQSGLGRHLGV
Source text: Binding affinity of anti-LILRB1 and anti-LILRB2 antibodies against human LILRB1, LILRB2, LILRA1, LILRA2 and cynomolgus LILRB2 was ranked by measuring dissociation rate constant (Kdis) using the Octet system.

[5] = target: T4, human LILRB1-his (human, UniProt Q8NHL6 24-458, limits assumed); assay: SPR (Biacore 8K), antibody captured via Fc, LILRB1-his as analyte, 1:1 model
T4 construct: Analyte of the Biacore run; not shown: His tag
T4 sequence (Q8NHL6 24-458 limits assumed): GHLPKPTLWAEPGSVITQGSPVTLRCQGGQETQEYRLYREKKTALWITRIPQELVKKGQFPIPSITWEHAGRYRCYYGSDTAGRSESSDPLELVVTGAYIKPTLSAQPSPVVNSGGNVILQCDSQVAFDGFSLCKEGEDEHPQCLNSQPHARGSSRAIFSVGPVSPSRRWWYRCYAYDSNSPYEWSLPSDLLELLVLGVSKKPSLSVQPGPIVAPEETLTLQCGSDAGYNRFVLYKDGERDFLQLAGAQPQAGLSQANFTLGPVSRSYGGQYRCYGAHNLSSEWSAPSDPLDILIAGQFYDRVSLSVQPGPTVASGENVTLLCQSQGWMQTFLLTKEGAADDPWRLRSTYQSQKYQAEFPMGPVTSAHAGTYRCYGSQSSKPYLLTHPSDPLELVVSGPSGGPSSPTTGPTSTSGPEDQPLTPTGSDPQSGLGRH

Row | Binder | binding result [1] | EC50 [2] [nM] | EC50 [3] [nM] | Top Inhibition [3] [%] | koff [4] [s⁻¹] | also measured
1 | B1 | no binding | 0.72 | 0.506 | 80.6 |  | 
2 | B2 | no binding | 0.34 | 0.268 | 77.3 |  | 
3 | B3 |  |  |  |  | 0.00167 | 
4 | B4 |  |  |  |  | 0.00341 | 
5 | B5 |  |  |  |  | 3.91e-05 | 
6 | B6 |  |  |  |  |  | Kd [5]: 0.194 nM; koff [5]: 0.000108 s⁻¹; kon [5]: 556000 M⁻¹ s⁻¹
7 | B7 | no binding | 0.15 | 0.0889 | 68.7 |  | 
8 | B8 | no binding | 0.18 | 0.203 | 88.4 |  | 
9 | B9 |  | 0.3 | 0.0673 | 81.6 |  | EC50 [1]: 1.48 nM
10 | B10 | no binding | 0.37 | 0.157 | 80.1 |  | 
11 | B11 | no binding | 0.53 | 0.445 | 79.4 |  | 
12 | B12 |  |  |  |  | 0.0014 | 
13 | B13 |  |  |  |  | 0.00135 | 
14 | B14 |  |  |  |  | 0.000757 | 
15 | B15 |  |  |  |  | 0.000157 | 
16 | B16 |  |  |  |  |  | Kd [5]: 0.235 nM; koff [5]: 0.000112 s⁻¹; kon [5]: 476000 M⁻¹ s⁻¹
17 | B17 |  |  |  |  |  | Kd [5]: 0.507 nM; koff [5]: 0.0002 s⁻¹; kon [5]: 394000 M⁻¹ s⁻¹
18 | B18 |  |  |  |  |  | Kd [5]: 0.24 nM; koff [5]: 0.000107 s⁻¹; kon [5]: 444000 M⁻¹ s⁻¹
